Measured values taken from PMC13071878, “Yeast Display Technology Enables Rapid Discovery of Low-Nanomolar Macrocyclic Peptide Inhibitors of Human Angiotensin-Converting Enzyme 2” (Journal of Medicinal Chemistry, 2026).

How the values were obtained:
[1] = molecular target: extracellular catalytic domain of human angiotensin-converting enzyme 2 (hACE2), produced in mammalian cells (human) (UniProt Q9BYF1); experiment: enzyme inhibition assay
[2] = molecular target: human angiotensin-converting enzyme 1 (hACE1) (human) (UniProt P12821); experiment: enzyme inhibition assay
Chain of human angiotensin-converting enzyme 1 (hACE1) (human) (P12821 30-1256): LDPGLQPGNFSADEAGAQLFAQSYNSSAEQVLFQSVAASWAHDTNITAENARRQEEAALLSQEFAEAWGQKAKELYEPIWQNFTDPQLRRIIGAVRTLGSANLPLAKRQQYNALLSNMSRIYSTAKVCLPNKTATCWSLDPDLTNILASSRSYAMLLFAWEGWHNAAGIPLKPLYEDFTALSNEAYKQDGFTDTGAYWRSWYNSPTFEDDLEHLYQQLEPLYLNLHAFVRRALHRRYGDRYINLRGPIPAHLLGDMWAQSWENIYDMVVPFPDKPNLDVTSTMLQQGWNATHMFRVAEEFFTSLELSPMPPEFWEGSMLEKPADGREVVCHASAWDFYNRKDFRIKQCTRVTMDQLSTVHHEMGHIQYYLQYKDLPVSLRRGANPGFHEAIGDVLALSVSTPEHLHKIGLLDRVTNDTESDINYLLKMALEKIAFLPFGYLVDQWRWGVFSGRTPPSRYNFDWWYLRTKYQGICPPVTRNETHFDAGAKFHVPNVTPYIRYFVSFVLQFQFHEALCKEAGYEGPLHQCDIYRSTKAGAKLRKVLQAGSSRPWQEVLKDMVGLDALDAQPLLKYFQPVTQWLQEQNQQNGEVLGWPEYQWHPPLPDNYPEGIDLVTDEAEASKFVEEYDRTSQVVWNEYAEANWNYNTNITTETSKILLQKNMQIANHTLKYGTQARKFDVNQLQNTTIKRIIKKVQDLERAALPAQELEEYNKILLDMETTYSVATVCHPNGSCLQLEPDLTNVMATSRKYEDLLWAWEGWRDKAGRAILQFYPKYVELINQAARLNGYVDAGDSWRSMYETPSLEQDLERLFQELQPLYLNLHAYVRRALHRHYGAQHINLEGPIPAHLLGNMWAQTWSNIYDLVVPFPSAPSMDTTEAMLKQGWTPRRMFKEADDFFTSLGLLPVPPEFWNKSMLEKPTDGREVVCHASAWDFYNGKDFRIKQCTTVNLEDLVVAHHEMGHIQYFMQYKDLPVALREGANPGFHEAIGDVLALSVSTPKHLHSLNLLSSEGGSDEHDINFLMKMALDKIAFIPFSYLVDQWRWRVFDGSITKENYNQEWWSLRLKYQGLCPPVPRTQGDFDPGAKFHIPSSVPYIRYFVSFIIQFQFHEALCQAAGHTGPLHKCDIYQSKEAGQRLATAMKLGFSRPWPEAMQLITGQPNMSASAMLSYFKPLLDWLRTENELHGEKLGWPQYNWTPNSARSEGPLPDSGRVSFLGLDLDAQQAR

Chain of extracellular catalytic domain of human angiotensin-converting enzyme 2 (hACE2), produced in mammalian cells (human) (Q9BYF1 19-615): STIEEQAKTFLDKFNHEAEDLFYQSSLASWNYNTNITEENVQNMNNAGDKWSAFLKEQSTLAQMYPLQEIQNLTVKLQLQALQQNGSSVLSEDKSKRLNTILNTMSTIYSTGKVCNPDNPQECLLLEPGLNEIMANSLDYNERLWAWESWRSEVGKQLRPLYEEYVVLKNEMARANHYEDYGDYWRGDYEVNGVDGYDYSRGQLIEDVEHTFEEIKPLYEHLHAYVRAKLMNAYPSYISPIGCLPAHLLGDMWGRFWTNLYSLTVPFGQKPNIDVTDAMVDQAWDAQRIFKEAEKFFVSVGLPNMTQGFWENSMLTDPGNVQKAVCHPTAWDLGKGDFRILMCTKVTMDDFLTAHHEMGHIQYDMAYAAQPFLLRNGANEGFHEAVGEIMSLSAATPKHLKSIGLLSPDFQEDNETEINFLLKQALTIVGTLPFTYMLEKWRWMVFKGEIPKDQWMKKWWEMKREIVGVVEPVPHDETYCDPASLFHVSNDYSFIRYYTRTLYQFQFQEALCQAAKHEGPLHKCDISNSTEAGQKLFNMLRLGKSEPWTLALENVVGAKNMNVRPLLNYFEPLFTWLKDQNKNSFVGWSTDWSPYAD

A0773, commercially available inhibitor (peptide)
IC50 [1]: > 30000 nM | Ki [1]: > 30000 nM | IC50 [2]: 212 nM | Ki [2]: 53 nM
